One molecule from patent publication US10494417B2, “Peptide inhibitors of BCR-ABL oligomerization” (University of Utah Research Foundation, priority 2014, dated 2019) can be followed below.

Assay [1] concerns Ba/F3 cells expressing native BCR-ABL1 (Ba/F3-p210). The assay is described as follows: Annexin V/7-AAD apoptosis assay in transfected Ba/F3-p210 cells. The format is cell-based, mouse. The procedure:
Assays were run in triplicate (n=3).
(§1) For analysis of apoptosis and cell death, cells were pelleted and resuspended in Annexin V-binding buffer (BD Biosciences), stained with anti-Annexin V-APC (BD Biosciences or Life Technologies) and 7-AAD (BD Biosciences or Life Technologies) and analyzed on a BD FACSCanto flow cytometer. In addition to the APC and 7-AAD channels, GFP- and mCherry-positive cells were also recorded.
(§2) For analysis of apoptosis and necrotic cell death, cells were pelleted and resuspended in Annexin V-binding buffer (BD Biosciences), stained with anti-Annexin V-APC and 7-AAD (BD Biosciences or Life Technologies) and analyzed on a BD FACSCanto flow cytometer. In addition to the APC and 7-AAD channels, GFP- and mCherry-positive cells were also recorded.

Another assay relates to K562 cells. As to the kind of experiment: Nuclear (DNA) segmentation apoptosis assay in transfected K562 cells. The format is cell-based, human. The following applies: 48 h, vs EGFP control. The procedure:
CC^mut3 was then tested for its ability to induce apoptosis in K562 cells. Apoptosis was observed using 3 different methods: 1) nuclear segmentation; 2) induction of the effector Caspase-3/7; and 3) 7AAD/Annexin V staining.
Nuclear segmentation analysis was performed as previously described (16). Briefly, immediately prior to cellular analysis, 2-well live cell chambers were treated for 15 min with poly-L-lysine (Sigma-Aldrich, St. Louis, Mo., USA), to allow cell adhesion in the wells. Forty-eight h following transfection, the transfected K562 cells were transferred to the pretreated 2-well live cell chambers. Cells were incubated for 15 min at 37° C. following the addition of 0.3 μL Hoechst H33342 nuclear stain (Life Technologies, Carlsbad, Calif., USA). Cells were then imaged using an inverted fluorescence microscope (Olympus IX701F, Scientific Instrument Co., Sunnyvale, Calif., USA) equipped with an F-view Monochrome CCD camera. Fields of view were selected based on EGFP fluorescence when viewing using a 40× oil immersion objective. Nuclei from cells that were positively transfected (positive for EGFP fluorescence) were categorized as either healthy (round or kidney-shaped nuclei) or segmented (punctate staining of nuclei), and the percentage of cells with segmented DNA was calculated (n=3 in replicate).

Assay [2] concerns Ba/F3 cells expressing BCR-ABL1E255V. As to the kind of experiment: Annexin V/7-AAD apoptosis assay in Ba/F3 BCR-ABL1 E255V cells. The following applies: 72 h, CCmut3 vs EV. The assay is classed as cell-based, mouse. The procedure: as §1, §2
The test system of assay [3] is Ba/F3 cells expressing native BCR-ABL1 (Ba/F3-p210). As to the kind of experiment: Colony forming assay of transfected Ba/F3-p210 cells. The assay is classed as cell-based, mouse. The note with it: CCmut3 alone vs EV or EGFP control. The procedure:
Briefly, K562 or Ba/F3-p210 cells were transfected according to the protocol above. One day following transfection, 1.0×10^6 cells per transfection group were collected and re-suspended in sterile PBS. […] Finally, 1.1 mL of cell/methylcellulose mixture was seeded in duplicate and allowed to grow at 37° C. and 5% CO2 for 7 days. Colony formation was assessed by counting colonies in two 200 μm2 areas on the plate. Experiments were performed once in duplicate (n=1 in duplicate). All kit reagents and media were purchased from Stem Cell Technologies (Vancouver, BC, Canada).

Assay [4] deals with Ba/F3 cells expressing BCR-ABL1E255V/T315I. The assay is described as follows: Colony forming assay of Ba/F3 BCR-ABL1 E255V/T315I cells. The assay is classed as cell-based, mouse. The note with it: for colony formation, in words: CCmut3 gene delivery (transfection; b502 lentiviral infection) vs EV. The method, then:
Following selection of transfected cells by cell sorting, viable cells were enumerated and seeded into methylcellulose as described previously (Dixon, A. S., et al. (2011) J. Biol. Chem. 286, 27751-27760). Briefly, mCherry-positive Ba/F3 cells were re-suspended in IMDM with 2% FBS (Stem Cell Technologies) at a concentration of 10,000 cells/mL. Three hundred microliters of this dilution was added to 3 mL of Methocult media (M3434—Ba/F3 p210 wild-type and mutant lines or M3234—Ba/F3 parental, Stem Cell Technologies). Approximately 1100 cells, or 1.2 mL, were seeded per dish in duplicate for each transfection. Colonies were counted 7 days later in an area of […] per dish.
Following selection of transfected cells by cell sorting, methylcellulose colony assays were performed by plating in 0.9% methylcellulose (Stem Cell Technologies; M3234 for Ba/F3 BCR-ABL1 native and mutant lines; M3434 for Ba/F3 parental cells; H4230 for CML patient samples). mCherry-positive Ba/F3 cells (1.1×10^3 cells/plate) or GFP-positive primary CML CD34+ cells (1×10^3 cells/plate) were seeded per dish in duplicate. In the case of CML patient samples, cells were plated in the presence of 1× StemSpan CC100 cytokine cocktail (StemCell Technologies). All cells were plated with or without the indicated TKI in three or more independent experiments. Plates were incubated at 37° C. in a 5% CO2 humidified incubator. Colonies were counted 7-14 days later in an area of 50 μm2 per dish using an inverted microscope.

The subject of a further assay is Ba/F3-P210 cells. The assay is described as follows: Viability of transfected Ba/F3-p210 cells (trypan blue exclusion). The assay is classed as cell-based, mouse. The following applies: 72 h following transfection, vs mCherry control, n=1. The procedure: Two days following cell passaging, 3.0×10^6 cells were collected by centrifugation at 750×g for 10 min for each transfection group. Following collection, 4 μg DNA was transfected into cells according to the Cell Line Nucleofector® Kit V protocol (program X-001) using the Amaxa Nuelcofector II. Following nucleofection, the DNA/cell mixture was added to 500 μL plain RPMI and incubated for 20 min. After incubation, the 500 μL cell/DNA/RPMI mixture was added to complete RPMI 1640 media and allowed to incubate at 37° C. for 72 h until analysis.
Forty-eight or 72 h following transfection, 100 μL of treated K562 or Ba/F3-p210 cells was mixed with 100 μL trypan blue solution (Life Technologies). The numbers of viable cells (those impermeable to the trypan blue dye) from four different quadrants in an INCYTO™ C-CHIP™ Neubauer hemacytometer (VWR International, Radnor, Pa., USA) were counted using a standard light microscope. Quadrant counts were then averaged to obtain the number of viable cells per mL. For experiments using the Helix2mut3 construct, counts were performed on one aliquot per transfection (n=3 in replicate). In experiments involving the CappedHelix2mut3 construct, counts were performed three times using separate 100 pt aliquots from one transfection (n=1 in triplicate).

Several values for one entry are separate records, joined by “and”; a condition that tells them apart may be missing. Identical values can stand only once. Entries after “also recorded” stand apart in the source; their conditions may differ.

B1: CCmut3: modified Bcr-Abl coiled-coil domain (residues 1-72) with mutations C38A, K39E, S41R, L45D, E48R, Q60E (protein)
chain: MVDPVGFAEAWKAQFPDSEPPRMELRSVGDIEQELERAEARIRRDEQRVNQERFRMIYLETLLAKEKKSYDR
B1: the “apoptosis, in words” value in assay [1] (72 h, CCmut3 vs EV) was “increases apoptosis”; in assay [2], “increase of apoptosis”; in assay [2] (listed as CC^mut3) it was “significant shift toward the apoptotic fraction”. The “increase of apoptotic cells” value in assay [1] (72 h, CCmut3 vs EV) was “approximately 3 fold”. For the same molecule, the “increase in apoptotic population” value in assay [1] (CC^mut3 versus EV control (FIG. 14B)) is listed as “more than 30%”. The results for the “induction of apoptosis (nuclear/DNA segmentation)” value in the assay with K562 cells and in the assay on K562 cells (listed as CC^mut3) were “increase in apoptosis; also recorded: significantly induced apoptosis” and “induces apoptosis; also recorded: causing apoptosis via nuclear segmentation”, respectively. Further, the increase in apoptosis in assay [2] is 6-8 fold and > 5 fold; in assay [2] (listed as CC^mut3), 6-8 fold. Besides, the “colony formation, in words” value in assay [3] is on record as “greatly reduced; also recorded: nearly eliminated colony forming ability”; in assay [3] (listed as CC^mut3), “greatly reduced; also recorded: nearly eliminated CFCs; also recorded: significantly lower than the EGFP control”; in assay [4] it was “again reduced”; in assay [4] (listed as CC^mut3), “reduced; also recorded: Inhibition in colony formation”. In assay [4] (CCmut3 vs EV), the “reduction of CFCs / colony forming ability compared to EV” value is listed as “approximately 50%”. Also, the “proliferation/viability of Ba/F3-p210 cells” value with Ba/F3-P210 cells is “replicated to a similar extent”.
